Reference: the Immune Epitope Database (IEDB)

Experiments:
HLA-A*02:16 [1] = experiment: IEDB peptide-MHC binding, purified MHC/competitive/fluorescence; filed as Kd, often an IC50 or EC50 that approximates it; ≥ and ≤ were set here for values at or beyond the usual limits of such assays; conditions: source organism: Human immunodeficiency virus 1
HLA-A*02:11 [2] = experiment: as above
HLA-A*69:01 [3] = experiment: as above
HLA-A*02:03 [4] = experiment: as above
HLA-A*02:01 [5] = experiment: as above
HLA-A*02:12 [6] = experiment: as above
HLA-A*02:19 [7] = experiment: as above; conditions: source organism: Human immunodeficiency virus 1
HLA-A*02:06 = experiment: as above
HLA-B*27:05 [8] = experiment: as above
HLA-A*02:16 [9] = experiment: IEDB peptide-MHC binding, purified MHC/direct/fluorescence; filed as Kd, often an IC50 or EC50 that approximates it; ≥ and ≤ were set here for values at or beyond the usual limits of such assays
HLA-A*02:11 [10] = experiment: as above
HLA-A*68:02 = experiment: as above
HLA-A*02:03 [11] = experiment: as above
HLA-A*02:12 [12] = experiment: as above
HLA-A*02:19 [13] = experiment: as above
HLA-A*24:03 = experiment: as above
HLA-B*40:01 = experiment: as above; conditions: source organism: Ebola virus - Eckron (Zaire, 1976)
HLA-A*29:02 = experiment: as above
HLA-A*23:01 = experiment: as above
HLA-A*03:01 = experiment: as above
HLA-B*15:17 = experiment: IEDB peptide-MHC binding, purified MHC/competitive/fluorescence; filed as Kd, often an IC50 or EC50 that approximates it; ≥ and ≤ were set here for values at or beyond the usual limits of such assays
HLA-A*26:01 = experiment: as above
HLA-B*57:01 = experiment: as above
HLA-B*27:03 = experiment: as above
HLA-B*15:01 [14] = experiment: as above
HLA-B*18:01 = experiment: as above
HLA-B*46:01 = experiment: as above
HLA-B*39:01 = experiment: as above
HLA-B*51:01 = experiment: as above
HLA-A*69:01 [15] = experiment: IEDB peptide-MHC binding, purified MHC/direct/fluorescence; filed as Kd, often an IC50 or EC50 that approximates it; ≥ and ≤ were set here for values at or beyond the usual limits of such assays; conditions: source organism: Haemophilus influenzae
HLA-A*02:01 [16] = experiment: as above
HLA-B*58:01 = experiment: as above; conditions: source organism: Haemophilus influenzae
HLA-B*15:01 [17] = experiment: as above; conditions: source organism: Haemophilus influenzae
HLA-B*07:02 [18] = experiment: as above; conditions: source organism: Zaire ebolavirus
HLA-A*24:02 = experiment: IEDB peptide-MHC binding, purified MHC/competitive/fluorescence; ≥ and ≤ were set here for values at or beyond the usual limits of such assays; conditions: source organism: Zaire ebolavirus
HLA-B*07:02 [19] = experiment: as above; conditions: source organism: Zaire ebolavirus
HLA-B*08:01 = experiment: as above; conditions: source organism: Zaire ebolavirus
HLA-B*15:01 [20] = experiment: as above; conditions: source organism: Zaire ebolavirus
HLA-B*27:05 [21] = experiment: IEDB peptide-MHC binding, purified MHC/direct/fluorescence; filed as Kd, often an IC50 or EC50 that approximates it; ≥ and ≤ were set here for values at or beyond the usual limits of such assays; conditions: source organism: Reston ebolavirus - Reston
HLA-A*11:01 = experiment: IEDB peptide-MHC binding, purified MHC/competitive/fluorescence; filed as Kd, often an IC50 or EC50 that approximates it; ≥ and ≤ were set here for values at or beyond the usual limits of such assays; conditions: source organism: Human immunodeficiency virus 1
HLA-A*30:01 = experiment: as above; conditions: source organism: Human immunodeficiency virus 1
HLA-A*26:02 = experiment: as above; conditions: source organism: Human immunodeficiency virus 1
HLA-A*01:01 = experiment: as above; conditions: source organism: Human immunodeficiency virus 1
[22] = source organism: Human immunodeficiency virus 1
[23] = source organism: Zaire ebolavirus
[24] = source organism: Haemophilus influenzae 3655
[25] = source organism: Reston ebolavirus
[26] = source organism: Orthohantavirus hantanense

For GLGQHIYET, the Kd (HLA-A*02:16 [1]) was 0.00203 µM, the Kd (HLA-A*02:11 [2]; [22]) was 0.00955 µM and the Kd (HLA-A*69:01 [3]; [22]) was ≥ 20 µM. For the same sequence, the Kd (HLA-A*02:03 [4]; [22]) was 0.041 µM, the Kd (HLA-A*02:01 [5]; [22]) was 3.68 µM and the Kd (HLA-A*02:12 [6]; [22]) was 0.0755 µM. For the same sequence, the Kd (HLA-A*02:19 [7]) was 0.771 µM and the Kd (HLA-A*02:06; [22]) was 0.119 µM.
With GRAGVVPRY the Kd (HLA-B*27:05 [8]; source organism: Mycobacterium tuberculosis variant bovis BCG str. Pasteur 1173P2) was 0.23 µM.
KEGKLQCRI was tested, and the Kd (HLA-A*02:16 [9]; [23]) was ≥ 20 µM, the Kd (HLA-A*02:11 [10]; [23]) was ≥ 20 µM and the Kd (HLA-A*68:02; [23]) was ≥ 20 µM. The Kd (HLA-A*02:03 [11]; [23]) was ≥ 20 µM, the Kd (HLA-A*02:12 [12]; [23]) was ≥ 20 µM and the Kd (HLA-A*02:19 [13]; [23]) was ≥ 20 µM. The Kd (HLA-A*24:03; [23]) was ≥ 20 µM, the Kd (HLA-B*40:01) was ≥ 20 µM and the Kd (HLA-A*29:02; [23]) was ≥ 20 µM. For the same sequence, the Kd (HLA-A*23:01; [23]) was ≥ 20 µM, the Kd (HLA-A*03:01; [23]) was ≥ 20 µM and the Kd (HLA-B*15:17; [23]) was ≥ 20 µM. The Kd (HLA-A*69:01 [3]; [23]) was ≥ 20 µM, the Kd (HLA-A*26:01; [23]) was ≥ 20 µM and the Kd (HLA-B*57:01; [23]) was ≥ 20 µM. The Kd (HLA-A*02:01 [5]; [23]) was ≥ 20 µM, the Kd (HLA-B*27:03; [23]) was ≥ 20 µM and the Kd (HLA-B*15:01 [14]; [23]) was ≥ 20 µM. The Kd (HLA-B*18:01; [23]) was ≥ 20 µM, the Kd (HLA-B*46:01; [23]) was ≥ 20 µM and the Kd (HLA-B*39:01; [23]) was ≥ 20 µM. The Kd (HLA-B*51:01; [23]) was ≥ 20 µM.
KRYLQAKSE was tested, and the Kd (HLA-B*27:05 [8]; source organism: Escherichia coli 536) was 0.114 µM.
In the case of LMTAISQGI, the Kd (HLA-A*69:01 [15]) is reported as 1.72 µM, the Kd (HLA-A*02:01 [16]; source organism: Haemophilus influenzae) is reported as 0.0295 µM and the Kd (HLA-B*58:01) is reported as 0.367 µM. The Kd (HLA-B*15:01 [17]) was 2 µM, the Kd (HLA-A*02:11 [2]; [24]) was ≤ 0.0001 µM and the Kd (HLA-A*02:03 [4]; [24]) was ≤ 0.0001 µM. For the same sequence, the Kd (HLA-A*02:12 [6]; [24]) was 0.00115 µM and the Kd (HLA-A*02:06; [24]) was ≤ 0.0001 µM.
NRYGLPEKM was tested, and the Kd (HLA-B*27:05 [8]; source organism: Bacillus anthracis str. A0488) was 0.0175 µM.
For RDRFKRTSF, the Kd (HLA-A*02:16 [9]; [23]) was ≥ 20 µM, the Kd (HLA-A*02:11 [10]; [23]) was ≥ 20 µM and the Kd (HLA-A*68:02; [23]) was ≥ 20 µM. For the same sequence, the Kd (HLA-B*07:02 [18]) was ≥ 20 µM, the Kd (HLA-A*02:03 [11]; [23]) was ≥ 20 µM and the Kd (HLA-A*02:12 [12]; [23]) was ≥ 20 µM. For the same sequence, the Kd (HLA-A*02:19 [13]; [23]) was ≥ 20 µM, the Kd (HLA-A*24:03; [23]) was ≥ 20 µM and the Kd (HLA-A*23:01; [23]) was ≥ 20 µM. The Kd (HLA-A*03:01; [23]) was ≥ 20 µM, the IC50 (HLA-A*24:02) was 18.9 µM and the IC50 (HLA-B*07:02 [19]) was ≥ 74.2 µM. For the same sequence, the IC50 (HLA-B*08:01) was ≥ 114 µM, the IC50 (HLA-B*15:01 [20]) was 36.4 µM and the Kd (HLA-B*15:17; [23]) was ≥ 20 µM. For the same sequence, the Kd (HLA-A*69:01 [3]; [23]) was ≥ 20 µM, the Kd (HLA-A*26:01; [23]) was ≥ 20 µM and the Kd (HLA-B*57:01; [23]) was ≥ 20 µM. For the same sequence, the Kd (HLA-A*02:01 [5]; [23]) was ≥ 20 µM, the Kd (HLA-B*27:03; [23]) was ≥ 20 µM and the Kd (HLA-B*15:01 [14]; [23]) was ≥ 20 µM. For the same sequence, the Kd (HLA-B*18:01; [23]) was ≥ 20 µM, the Kd (HLA-B*46:01; [23]) was ≥ 20 µM and the Kd (HLA-B*39:01; [23]) was ≥ 20 µM. For the same sequence, the Kd (HLA-B*51:01; [23]) was ≥ 20 µM.
RRELSKEKL was tested, and the Kd (HLA-A*02:16 [9]; [25]) was ≥ 20 µM, the Kd (HLA-A*02:11 [10]; [25]) was ≥ 20 µM and the Kd (HLA-A*68:02; [25]) was ≥ 20 µM. The Kd (HLA-B*27:05 [21]) was ≥ 20 µM, the Kd (HLA-A*02:03 [11]; [25]) was ≥ 20 µM and the Kd (HLA-A*02:12 [12]; [25]) was ≥ 20 µM. The Kd (HLA-A*02:19 [13]; [25]) was ≥ 20 µM, the Kd (HLA-A*24:03; [25]) was ≥ 20 µM and the Kd (HLA-A*29:02; [25]) was ≥ 20 µM. The Kd (HLA-A*23:01; [25]) was ≥ 20 µM, the Kd (HLA-A*03:01; [25]) was ≥ 20 µM and the Kd (HLA-B*15:17; [25]) was ≥ 20 µM. For the same sequence, the Kd (HLA-A*69:01 [3]; [25]) was ≥ 20 µM, the Kd (HLA-A*26:01; [25]) was ≥ 20 µM and the Kd (HLA-B*57:01; [25]) was ≥ 20 µM. For the same sequence, the Kd (HLA-A*02:01 [5]; [25]) was ≥ 20 µM, the Kd (HLA-B*27:03; [25]) was ≥ 20 µM and the Kd (HLA-B*15:01 [14]; [25]) was ≥ 20 µM. For the same sequence, the Kd (HLA-B*18:01; [25]) was ≥ 20 µM, the Kd (HLA-B*46:01; [25]) was ≥ 20 µM and the Kd (HLA-B*39:01; [25]) was ≥ 20 µM. For the same sequence, the Kd (HLA-B*51:01; [25]) was ≥ 20 µM.
RSLFNTIAVLY was tested, and the Kd (HLA-A*11:01) was ≥ 20 µM, the Kd (HLA-A*30:01) was ≥ 20 µM and the Kd (HLA-B*15:17; [22]) was 0.0923 µM. It also gave a Kd (HLA-A*02:03 [4]; [22]) of 0.356 µM, a Kd (HLA-A*26:02) of 1.35 µM and a Kd (HLA-B*15:01 [14]; [22]) of 3.66 µM. The Kd (HLA-B*18:01; [22]) was 1.49 µM, the Kd (HLA-A*02:06; [22]) was 0.676 µM and the Kd (HLA-A*01:01) was ≥ 20 µM.
WLIEPCKLL gave a Kd (HLA-A*02:11 [10]; [26]) of 0.005 µM, a Kd (HLA-A*02:01 [16]; [26]) of 0.0243 µM and a Kd (HLA-A*02:12 [12]; [26]) of 0.139 µM.
With YRIWLEQNK the Kd (HLA-B*27:05 [8]; source organism: Mycobacterium tuberculosis C) was 0.0825 µM.
